B1: MYT9689 (antibody, V domains shown)
VH: EVQLVESGGGLVQPGGSLRLSCTASGFSFSESHWICWVRQAPGKGLEWVGCIYAGSIGSTYYASWAKGRFTISRDTSKNTVYLQMNSLRAEDTAVYYCARAPNDIYNYYFNLWGQGTLVTVSS
VL: EIVMTQSPSTLSASVGDRVIITCQASENIYNYLAWYQQKPGKAPKLLIYYASTLASGVPSRFSGSGSGAEFTLTISSLQPDDFATYYCQSGYVSKSSTFGQGTKLTVL
notes: also called hu29F1 VH S31E
B2: MYT9703 (antibody, V domains shown)
VH: EVQLVESGGGLVQPGGSLRLSCTASGFSFSSSHWICWVRQAPGKGLEWVGCIYAGSIGETYYASWAKGRFTISRDTSKNTVYLQMNSLRAEDTAVYYCARAPNDIYNYYFNLWGQGTLVTVSS
VL: EIVMTQSPSTLSASVGDRVIITCQASENIYNYLAWYQQKPGKAPKLLIYYASTLASGVPSRFSGSGSGAEFTLTISSLQPDDFATYYCQSGYVSKSSTFGQGTKLTVL
notes: Humanized 29F1 VH glutamate variant; also called hu29F1 VH S59E
B3: MYT9707 (antibody, V domains shown)
VH: EVQLVESGGGLVQPGGSLRLSCTASGFSFSSSHWICWVRQAPGKGLEWVGCIYAGSIGSTYYESWAKGRFTISRDTSKNTVYLQMNSLRAEDTAVYYCARAPNDIYNYYFNLWGQGTLVTVSS
VL: EIVMTQSPSTLSASVGDRVIITCQASENIYNYLAWYQQKPGKAPKLLIYYASTLASGVPSRFSGSGSGAEFTLTISSLQPDDFATYYCQSGYVSKSSTFGQGTKLTVL
notes: also called hu29F1 VH A63E
B4: MYT9706 (antibody, V domains shown)
VH: EVQLVESGGGLVQPGGSLRLSCTASGFSFSSSHWICWVRQAPGKGLEWVGCIYAGSIGSTYEASWAKGRFTISRDTSKNTVYLQMNSLRAEDTAVYYCARAPNDIYNYYFNLWGQGTLVTVSS
VL: EIVMTQSPSTLSASVGDRVIITCQASENIYNYLAWYQQKPGKAPKLLIYYASTLASGVPSRFSGSGSGAEFTLTISSLQPDDFATYYCQSGYVSKSSTFGQGTKLTVL
notes: also called hu29F1 VH Y62E
B5: MYT9710 (antibody, V domains shown)
VH: EVQLVESGGGLVQPGGSLRLSCTASGFSFSSSHWICWVRQAPGKGLEWVGCIYAGSIGSTYYASWEKGRFTISRDTSKNTVYLQMNSLRAEDTAVYYCARAPNDIYNYYFNLWGQGTLVTVSS
VL: EIVMTQSPSTLSASVGDRVIITCQASENIYNYLAWYQQKPGKAPKLLIYYASTLASGVPSRFSGSGSGAEFTLTISSLQPDDFATYYCQSGYVSKSSTFGQGTKLTVL
notes: also called hu29F1 VH A66E
B6: MYT9705 (antibody, V domains shown)
VH: EVQLVESGGGLVQPGGSLRLSCTASGFSFSSSHWICWVRQAPGKGLEWVGCIYAGSIGSTEYASWAKGRFTISRDTSKNTVYLQMNSLRAEDTAVYYCARAPNDIYNYYFNLWGQGTLVTVSS
VL: EIVMTQSPSTLSASVGDRVIITCQASENIYNYLAWYQQKPGKAPKLLIYYASTLASGVPSRFSGSGSGAEFTLTISSLQPDDFATYYCQSGYVSKSSTFGQGTKLTVL
notes: also called hu29F1 VH Y61E
B7: MYT9708 (antibody, V domains shown)
VH: EVQLVESGGGLVQPGGSLRLSCTASGFSFSSSHWICWVRQAPGKGLEWVGCIYAGSIGSTYYAEWAKGRFTISRDTSKNTVYLQMNSLRAEDTAVYYCARAPNDIYNYYFNLWGQGTLVTVSS
VL: EIVMTQSPSTLSASVGDRVIITCQASENIYNYLAWYQQKPGKAPKLLIYYASTLASGVPSRFSGSGSGAEFTLTISSLQPDDFATYYCQSGYVSKSSTFGQGTKLTVL
notes: also called hu29F1 VH S64E
B8: MYT9702 (antibody, V domains shown)
VH: EVQLVESGGGLVQPGGSLRLSCTASGFSFSSSHWICWVRQAPGKGLEWVGCIYAGSIESTYYASWAKGRFTISRDTSKNTVYLQMNSLRAEDTAVYYCARAPNDIYNYYFNLWGQGTLVTVSS
VL: EIVMTQSPSTLSASVGDRVIITCQASENIYNYLAWYQQKPGKAPKLLIYYASTLASGVPSRFSGSGSGAEFTLTISSLQPDDFATYYCQSGYVSKSSTFGQGTKLTVL
notes: also called hu29F1 VH G58E
B9: MYT9690 (antibody, V domains shown)
VH: EVQLVESGGGLVQPGGSLRLSCTASGFSFSSEHWICWVRQAPGKGLEWVGCIYAGSIGSTYYASWAKGRFTISRDTSKNTVYLQMNSLRAEDTAVYYCARAPNDIYNYYFNLWGQGTLVTVSS
VL: EIVMTQSPSTLSASVGDRVIITCQASENIYNYLAWYQQKPGKAPKLLIYYASTLASGVPSRFSGSGSGAEFTLTISSLQPDDFATYYCQSGYVSKSSTFGQGTKLTVL
notes: also called hu29F1 VH S32E
B10: MYT9696 (antibody, V domains shown)
VH: EVQLVESGGGLVQPGGSLRLSCTASGFSFSSSHWICWVRQAPGKGLEWVGCEYAGSIGSTYYASWAKGRFTISRDTSKNTVYLQMNSLRAEDTAVYYCARAPNDIYNYYFNLWGQGTLVTVSS
VL: EIVMTQSPSTLSASVGDRVIITCQASENIYNYLAWYQQKPGKAPKLLIYYASTLASGVPSRFSGSGSGAEFTLTISSLQPDDFATYYCQSGYVSKSSTFGQGTKLTVL
notes: also called hu29F1 VH I52E
B11: MYT9704 (antibody, V domains shown)
VH: EVQLVESGGGLVQPGGSLRLSCTASGFSFSSSHWICWVRQAPGKGLEWVGCIYAGSIGSEYYASWAKGRFTISRDTSKNTVYLQMNSLRAEDTAVYYCARAPNDIYNYYFNLWGQGTLVTVSS
VL: EIVMTQSPSTLSASVGDRVIITCQASENIYNYLAWYQQKPGKAPKLLIYYASTLASGVPSRFSGSGSGAEFTLTISSLQPDDFATYYCQSGYVSKSSTFGQGTKLTVL
notes: also called hu29F1 VH T60E
B12: MYT9693 (antibody, V domains shown)
VH: EVQLVESGGGLVQPGGSLRLSCTASGFSFSSSHWECWVRQAPGKGLEWVGCIYAGSIGSTYYASWAKGRFTISRDTSKNTVYLQMNSLRAEDTAVYYCARAPNDIYNYYFNLWGQGTLVTVSS
VL: EIVMTQSPSTLSASVGDRVIITCQASENIYNYLAWYQQKPGKAPKLLIYYASTLASGVPSRFSGSGSGAEFTLTISSLQPDDFATYYCQSGYVSKSSTFGQGTKLTVL
notes: also called hu29F1 VH I35E
B13: MYT9711 (antibody, V domains shown)
VH: EVQLVESGGGLVQPGGSLRLSCTASGFSFSSSHWICWVRQAPGKGLEWVGCIYAGSIGSTYYASWAEGRFTISRDTSKNTVYLQMNSLRAEDTAVYYCARAPNDIYNYYFNLWGQGTLVTVSS
VL: EIVMTQSPSTLSASVGDRVIITCQASENIYNYLAWYQQKPGKAPKLLIYYASTLASGVPSRFSGSGSGAEFTLTISSLQPDDFATYYCQSGYVSKSSTFGQGTKLTVL
notes: also called hu29F1 VH K67E
B14: MYT9699 (antibody, V domains shown)
VH: EVQLVESGGGLVQPGGSLRLSCTASGFSFSSSHWICWVRQAPGKGLEWVGCIYAESIGSTYYASWAKGRFTISRDTSKNTVYLQMNSLRAEDTAVYYCARAPNDIYNYYFNLWGQGTLVTVSS
VL: EIVMTQSPSTLSASVGDRVIITCQASENIYNYLAWYQQKPGKAPKLLIYYASTLASGVPSRFSGSGSGAEFTLTISSLQPDDFATYYCQSGYVSKSSTFGQGTKLTVL
notes: also called hu29F1 VH G55E
B15: MYT9701 (antibody, V domains shown)
VH: EVQLVESGGGLVQPGGSLRLSCTASGFSFSSSHWICWVRQAPGKGLEWVGCIYAGSEGSTYYASWAKGRFTISRDTSKNTVYLQMNSLRAEDTAVYYCARAPNDIYNYYFNLWGQGTLVTVSS
VL: EIVMTQSPSTLSASVGDRVIITCQASENIYNYLAWYQQKPGKAPKLLIYYASTLASGVPSRFSGSGSGAEFTLTISSLQPDDFATYYCQSGYVSKSSTFGQGTKLTVL
notes: also called hu29F1 VH I57E
B16: MYT9691 (antibody, V domains shown)
VH: EVQLVESGGGLVQPGGSLRLSCTASGFSFSSSEWICWVRQAPGKGLEWVGCIYAGSIGSTYYASWAKGRFTISRDTSKNTVYLQMNSLRAEDTAVYYCARAPNDIYNYYFNLWGQGTLVTVSS
VL: EIVMTQSPSTLSASVGDRVIITCQASENIYNYLAWYQQKPGKAPKLLIYYASTLASGVPSRFSGSGSGAEFTLTISSLQPDDFATYYCQSGYVSKSSTFGQGTKLTVL
notes: also called hu29F1 VH H33E

Results on 16 molecules are retold here after patent publication US20250352661A1 (MYTHIC THERAPEUTICS, published 2025).

The assay deals with T1, Human LRRC15 Protein, His Tag (Acro Biosystems) (human, UniProt Q8TF66 22-538, limits assumed).
T1 construct: not shown: His tag
T1 sequence (looked up): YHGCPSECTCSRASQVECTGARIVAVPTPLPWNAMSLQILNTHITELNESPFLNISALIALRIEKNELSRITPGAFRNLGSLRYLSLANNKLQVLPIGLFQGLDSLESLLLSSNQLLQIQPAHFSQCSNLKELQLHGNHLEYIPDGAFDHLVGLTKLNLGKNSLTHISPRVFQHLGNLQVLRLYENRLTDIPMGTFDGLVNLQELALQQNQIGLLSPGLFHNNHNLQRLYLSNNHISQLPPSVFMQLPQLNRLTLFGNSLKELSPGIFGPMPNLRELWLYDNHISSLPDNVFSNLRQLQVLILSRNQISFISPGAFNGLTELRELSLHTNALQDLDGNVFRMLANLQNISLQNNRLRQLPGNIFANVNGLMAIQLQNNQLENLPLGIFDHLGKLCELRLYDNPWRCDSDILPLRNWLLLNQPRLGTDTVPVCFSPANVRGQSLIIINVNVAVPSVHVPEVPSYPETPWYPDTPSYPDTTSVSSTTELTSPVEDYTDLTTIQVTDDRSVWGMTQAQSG
Briefly: BLI; dissociation pH 7.4 black, pH 5.4 grey [1/2); D00025 FIG. 6B (1/2]. As for the experimental part: Desirable mutations were transferred to a humanized framework (humanized, MYT 8387-8411). After allowing for four days of protein expression, cell culture supernatants were collected, quantified by SDS-PAGE analysis, and the pH dependence of the variant was evaluated using biolayer interferometry (BLI) on an Octet RED 96e instrument. Briefly, cell culture supernatants were diluted based on qualitative expression level of the variant determined by visual examination of SDS-PAGE gels, 5 μL of cell culture supernatant was diluted into 195 μL of 1×PBST, pH 7.4 for high expressors, 25 μL of cell culture supernatant was diluted into 175 μL of 1×PBST, pH 7.4 for medium expressors and 100 μL of cell culture supernatant was diluted into 100 μL of 1×PBST, pH 7.4 for low expressors for loading onto the sensor tips. The resulting diluted supernatants were then captured on an anti-human Fc sensor (Forte Bio). A baseline was established using 1×PBST (50 mM Potassium Phosphate Buffer+150 mM NaCl+0.05% Tween 20) pH 7.4, and the […] was associated with 50 nM of LRRC15 (Human LRRC15 Protein, His Tag, Acro Biosystems) in 1×PBST pH 7.4 for 120 sec to generate an association curve. In the dissociation phase, the antibody-antigen complex on the sensor was exposed to 1×PBST pH 7.4 or pH 5.4, for 300 sec. Association and dissociation phase curves were examined for the starting ABPC antibody (with no substitutions) and each corresponding antibody variant at pH 5.4 and pH 7.4 to inform on two criteria: a) enhanced dissociation (i.e., higher koff values) at pH 5.4 due to histidine substitution compared to the starting ABPC, (with no substitutions), and b) reduced dissociation at pH 7.4 (i.e., lower koff values) compared to pH 5.4 in the antibody variant itself and with the starting ABPC (with no substitutions).
The methods of Examples 9-10 were applied to RabMAb clone 29F1 (rabbit VH SEQ ID NO: 572 and VL SEQ ID NO: 578; and humanized VH SEQ ID NO: 576 and VL SEQ ID NO: 582).
For B1, the binding result is “binds”.
Under B2 stands “binds”; under B3, “binds”; under B4, “binds”.
B5: the binding result was “binds”.
Under B6 stands “binds”; under B7, “binds”.
Under B8 stands “binds”; under B9, “binds”.
Under B10 stands “binds”.
As to B11, the binding result was “binds”.
B12: the binding result is on record as “binds”.
Under B13 stands “binds”.
Under B14 stands “binds”; under B15, “binds”.
Under B16 stands “binds”.
